The source of these data is patent publication US20240076406A1, “SINGLE DOMAIN ANTIBODIES TARGETING CA-IX AS WELL AS COMPOSITIONS COMPRISING SAME” (National Research Council of Canada, priority 2021, published 2024).

A word on the EC50 (read off the curve): it is the midpoint of the concentration-response curve. The low end stands for greater potency, the high end for weaker potency. For orientation: Kd means the concentration at which binding is half-saturated.

The target of assay [1] is hCA-IX expressed on cells (SKRC52, SKRC59, 67NR^hCA-IX) (human) (UniProt Q16790). The assay can be described thus: plate-based cell binding assay, mean fluorescent intensity per cell area, SKRC52 (hCA-IX high) cells.
Assay [2] has the same target. Briefly: Plate-based cell binding assay, one site specific binding fit; cell line not given.

Consider cG250 full sized antibody (FSA), for which, in assay [1], the concentration for a half-maximal effect (EC50 (read off the curve)) turned out to be 1 nM. In assay [2], this substance registered a Bmax (mean fluorescent intensity per cell area) of 575 and a Kd of 1.29 nM.
